PMC7509493

Target: recombinant flounder IL-2 receptor beta, GST-tagged (GST-rfIL-2Rβ) (flounder (Paralichthys olivaceus))

percentage of CD4-1+ T lymphocytes in cultured flounder PBLs (FCM, 72 h), PHA + rfIL-2 after blocking with anti-rfIL-2Rβ polyclonal antibodies (order of 'respectively' assumed): 12.6%
percentage of CD4-1+ T lymphocytes in cultured flounder PBLs (FCM, 72 h), PHA + rfIL-2 group without blocking antibodies: 19.2%
percentage of CD4-1+ T lymphocytes in cultured flounder PBLs (FCM, 72 h), PHA + rfIL-2 with anti-rfIL-2 polyclonal antibodies (order of 'respectively' assumed): 7.2%
percentage of CD4-2+ T lymphocytes in cultured flounder PBLs (FCM, 72 h), PHA + rfIL-2 after blocking with anti-rfIL-2Rβ polyclonal antibodies (order of 'respectively' assumed): 11%
percentage of CD4-2+ T lymphocytes in cultured flounder PBLs (FCM, 72 h), PHA + rfIL-2 group without blocking antibodies: 14.5%
percentage of CD4-2+ T lymphocytes in cultured flounder PBLs (FCM, 72 h), PHA + rfIL-2 with anti-rfIL-2 polyclonal antibodies (order of 'respectively' assumed): 8.8%
percentage of IL-2Rβ+ cells in cultured flounder PBLs (FCM, 72 h), PHA + rfIL-2 after blocking with anti-rfIL-2Rβ polyclonal antibodies: 17.8%
percentage of IL-2Rβ+ cells in cultured flounder PBLs (FCM, 72 h), PHA + rfIL-2 group without blocking antibodies: 26.8%
percentage of IL-2Rβ+ cells in cultured flounder PBLs (FCM, 72 h), PHA + rfIL-2 with anti-rfIL-2 polyclonal antibodies: 13.3%
Substance: recombinant flounder IL-2 protein, His-tagged (His-rfIL-2) (ligand)
